From PMC9253517 (The Journal of Experimental Medicine, 2022) come the findings set out here.

Test [1] deals with T1, SARS-CoV-2 Wuhan-Hu-1 RBD (SARS-CoV-2, Wuhan-Hu-1 (GenBank …, UniProt P0DTC2)). As to the kind of experiment: BLI. Conditions: both partners purified.
In test [2] the target is T1, SARS-CoV-2 Wuhan-Hu-1 RBD. The test is described as follows: cell-based or functional assay.

B1: JR177 (antibody, V domains shown)
VH: QVQLVESGGGVVQPGRSLRLSCAASGFTLSSYAMHWVRQAPGKGLEWVALILYDGSNKYYADSVKGRFTISRDNSKNTVYLQMNSLRAEDTAVYYCARVRVWGRVVVAASFYYGMDVWGQGTTVTVSS
VL: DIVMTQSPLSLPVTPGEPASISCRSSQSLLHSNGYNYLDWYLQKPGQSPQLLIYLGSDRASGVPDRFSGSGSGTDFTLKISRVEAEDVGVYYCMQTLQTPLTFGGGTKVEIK
Regarding B1, the binding result in test [1] is given as “binds”. Further, in test [2], the “neutralisation IC50, Wuhan-Hu-1 pseudovirus” value (from here on “neutralisation IC50”) is 0.00328 µg/mL.

B2: JR043 (antibody, V domains shown)
VH: QVQLVQSGAEVKKPGASVKVSCKASGYTFTRNYMHWVRQAPGQGLEWMGIINPSGGSTSYAQKFQGRVTMTRDTSTSTVYMELSSLRSEDTAVYYCARVDSSSWSHCDYWGQGTLVTVSS
VL: DIQLTQSPSSLSASVGDRVTITCRASQSISTYLNWYQQNPGKAPKLLIYGASNLQSGVPSRFSGSGSGTDFTLTISSLQPEDFATYYCQQSYSTLEITFGQGTRLEIK
In the case of B2, in test [1], the binding result is recorded as “binds”. Besides, the “neutralisation IC50” value in test [2] is 0.00587 µg/mL.

B3: JR042 (antibody, V domains shown)
VH: EVQLVESGGGLIQPGGSLRLSCVASGVTVSSNYMSWVRQAPGKGLEWVSVIYPGGTTYYADSVKGRFTISRDNSKNTLYLQMTSLRAEDTAVYYCARGGDYHYGMDVWGQGTTVTVSS
VL: DIQLTQSPSFLSASVGDRVTITCRASQGISSYLAWYQQKPGKAPKLLIYAASTLQSGVPSRFSGSGSGTEFTLTISSLQPEDFATYYCQLLNSYPPTFGQGTKLEIK
Turning to B3, the binding result in test [1] is reported as “binds”. Besides, the “neutralisation IC50” value in test [2] is 0.0209 µg/mL.

B4: JR216 (antibody, V domains shown)
VH: QLQLQESGPGLVKPSETLSLTCTVSGGSISSGSYFWGWIRQPPGKGLEWIGNIYNSGSTYYSPSLKSRVTISVNTSKNQFSLKMSSVTAADTAVYYCARQPWLRSQFDYWGQGTLVTVSS
VL: NFMLTQPHSVSESPGKTVTISCTGSSGSIASNYVQWYQQRPGSAPTNVIYEDNQRPSGVPDRFSGSIDSSSNSASLTISGLKTEDEADYYCQSYDSSTVVFGGGTKLTVL
Take B4: the binding result in test [1] was “binds”. Further, the “neutralisation IC50” value in test [2] was 0.0458 µg/mL.

B5: JR233 (antibody, V domains shown)
VH: QVQRVQSGAEVKKPGSSVKVSCKASGGTFSSYAFSWVRQAPGQGLEWMGGIIPILRIADYAQKFQGRVTITADKSTSTAFMELSSLRSEDTAVYYCARGQIELVPAARVDYFDYWGQGTLVTVSS
VL: DIQLTQSPSSLSASVGDRVTITCRASQSISSYLNWYQQKPGKAPKLLIYAASSLQSGVPSRFSGSGSGTDFTLTISSLQPEDFATYYCQQSYTTSFGPGTKVDIK
As for B5, the binding result in test [1] is reported as “binds”. Besides, in test [2], the “neutralisation IC50” value was 0.00933 µg/mL.

B6: JR215 (antibody, V domains shown)
VH: QVQLVQSGAEVKKPGASVKVSCKASGYTFTGYYMHWVRQAPGQGLEWMGRINPNSGDTNFPQKFQGRVTMTRDTSISTAYMELSRLRSDDTAVYYCARDGVADFNYDYWGQGTLVTVSS
VL: LTQPASVSGSPGQSITISCTGSSSDVGSYNLVSWYQQHPGKAPKLMIYEVSRRPSGVSNRFSGSKSGNTASLTISGLQAEDEADYYCCSYAGSSTWEVLFGGGTKLTVL
Take B6: the binding result in test [1] was “binds”. The “neutralisation IC50” value in test [2] came out at 0.0448 µg/mL.

B7: JR039 (antibody, V domains shown)
VH: QLQLQESGPGLVKPSETLSLTCTVSGGSISSSSYYWGWIRQPPGKGLEWIGSIYYSGSTYYNPSLKSRVSISVDTSKNQFSLKLSSVTAADTAVYYCARPGPAYYDRSGYYRAEYFQRWGQGTLVTVSS
VL: AIRMTQSPSSLSASVGDRVTITCQASQDISDYLSWYQQKPGKAPKLLIYDASNLETGVPSRFSGSGSGTDFTFTISSLQPEDIATYYCQQYDNLPLTFGGGTKVEIK
On to B7, for which, in test [1], the binding result is recorded as “binds”. Moreover, the “neutralisation IC50” value in test [2] was 0.0219 µg/mL.

B8: JR041 (antibody, V domains shown)
VH: EVQLVESGGGLVQPGRSLRLSCAASGFTFDDYAMYWVRQAPGKGLEWVSGISWNSGSIGYADSVKGRFTISRDNAKNSLYLQMNSLRAEDTALYYCAKDISYHTGTIDYWGQGTLVTVSS
VL: QSALTQPASVSGSPGQSITISCTGTSSDIGGYNYVSWYQQHPGKAPKLMIYDVSNRPSGVSNRFSGSKSGNTASLTISGLQAEDEADYYCSSYTSSSTLGVGGGTKLTVL
Turning to B8, in test [1], the binding result was “binds”. Also, in test [2], the “neutralisation IC50” value worked out at 0.0547 µg/mL.

B9: JR309 (antibody, V domains shown)
VH: EVQLVESGGGLVQPGRSLRLSCAASGFTFDDYAIHWVRQAPGKGLEWVSGSSWNSGTIGYADSVKGRFTISRDNAKNSLYLQMNSLRAEDTALYYCAKDWGTGDYNSYYFDYWGQGTLVTVSS
VL: SYELTQPPSVSVAPGKTARITCGGNNIGSKSVHWYQQKPGQAPVVVVYDDSDRPSGNPERFSGSNSGNTATLTIRRVEAGDEADYYCQVWDSNSDQYVFGTGTKVTVL
In the case of B9, the binding result in test [1] is recorded as “binds”. For the same molecule, the “neutralisation IC50” value in test [2] stood at 0.0155 µg/mL.

B10: JR086 (antibody, V domains shown)
VH: QVQLVQSGAEVKKPGASVKVSCKASGYTFTGYYMHWVRQAPGQGLEWMGWINPISGATNYAQKFQGGVTMTRDTSISTAYMELSRLRSDDTAVYYCARVNHIVVVTAIDPIYGMDVWGQGTTVTVSS
VL: QSALTQPASVSGSPGQSITISCTGTSSDVGGYNYVSWYQQHPGKAPKLMIYEVSNRPSGVSNRFSGSKSGNTASLTISGLQAEDEADYYCSSYTSSSTLYYVFGTGTKVTVL
On to B10, for which the binding result in test [1] is reported as “binds”. For the same molecule, in test [2], the “neutralisation IC50” value turned out to be 0.0358 µg/mL.

B11: JR174 (antibody, V domains shown)
VH: QVQLVQSGAEVKKPGSSVKVSCKASGGTFSSYAISWVRQAPGQGLEWMGGIIPIFGTAHYAQKFQGRVTITADESTSTAYMELSSLRSEDTAVYFCARDLGGIQLYLLAYWGQGTLVTVSS
VL: EIVLTQSPVTLSLSPGERATLSCRASQSVSSTYLAWYQQKPGQAPRLLIYGASSRATGIPDRFSGSGSGTDFTLTISRLEPEDFAVYYCQQYVGSPGTFGQGTKVEIK
Turning to B11, the binding result in test [1] was “binds”. The “neutralisation IC50” value in test [2] was 0.0798 µg/mL.

B12: JR088 (antibody, V domains shown)
VH: QVQLQQSGPGLVKPSQTLSLTCAISGDSVSSDSAAWNWIRQSPSRGLEWLGRTYYRSKWSNDYEVSVKSRITINPDTSKNQFSLQLNSVTPEDTAVYYCAKQQLVLDDAFDIWGQGTMVTVSS
VL: QSALTQPRSVSGSPGQSVTISCTGTSSDVGGHNYVSWYEQHPGKAPKLMMYDVSKRPSGVPDRFSGSKSGNTASLTISGLQAEDEADYYCCSYAGSYIWVFGGGTKLTVL
Regarding B12, the binding result in test [1] is “binds”. Moreover, the “neutralisation IC50” value in test [2] was found to be 0.0381 µg/mL.

B13: JR328 (antibody, V domains shown)
VH: EVQLVESGGGLIQPGGSLRLSCAASGVIVSRNYMSWVRQAPGKGLEWVAVIYSGGSTFYADSVKGRFTISRDDSKNTLFLQMNALRAEDTAVYYCARDGDYYGMDVWGRGTTVTVSS
VL: DIQLTQSPSFLSASVGDRVTITCRASQGISNYLAWYQQKPGTAPRLLIYAAFTLQSGVPSRFSGSGSGTEFTLTISSLQPEDFATYYCQQLNTYPGFTFGPGTKVDIK
B13: in test [2], the “neutralisation IC50” value came to 0.0167 µg/mL.

B14: JR173 (antibody, V domains shown)
VH: EVQLVESGGGLVQPGRSLRLSCAASGFTFDDYAMHWVRQAPGKGLEWVSGISWNSGRKGYADSVKGRFTISRDNAKNSLHLQMNSLRAEDTALYYCAKDIQEAIEVSSIGFDYWGQGTLVTVSS
VL: QSVLTQPPSVSGAPGQRVTISCTGSSSNIGAGYDVHWYQQLPGTAPKLLIYGNSNRPSGVPDRFSGSKSGTSASLAITGLQAEDEADYYCQSYDSSLSGYAVFGGGTQLTVL
B14: the binding result in test [1] was “binds”. The “neutralisation IC50” value in test [2] was determined as 0.0166 µg/mL.
